# Results reported in publication PMC6093710, “The Peptidisc, a simple method for stabilizing membrane proteins in detergent-free solution” (eLife, 2018).
# No end group written: not given here.
# T1: Colicin M, His-tagged (UniProt P05820 1-271)
# T1 construct: colicin M; Construct as in Mills et al., 2014; also called ColM; source: E. coli BW25113, plasmid pMLD189, purified
# T1 sequence: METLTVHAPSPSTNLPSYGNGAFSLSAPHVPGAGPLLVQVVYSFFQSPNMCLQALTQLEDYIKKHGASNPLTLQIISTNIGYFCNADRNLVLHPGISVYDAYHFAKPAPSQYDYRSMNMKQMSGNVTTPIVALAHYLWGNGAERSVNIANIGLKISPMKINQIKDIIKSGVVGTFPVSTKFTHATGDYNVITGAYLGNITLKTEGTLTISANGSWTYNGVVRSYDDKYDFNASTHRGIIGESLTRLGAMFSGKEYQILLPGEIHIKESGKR
# T2: FhuA receptor, His-tagged (UniProt P06971 34-747)
# T2 construct: also called FhuA transporter
# T2 sequence (looked up): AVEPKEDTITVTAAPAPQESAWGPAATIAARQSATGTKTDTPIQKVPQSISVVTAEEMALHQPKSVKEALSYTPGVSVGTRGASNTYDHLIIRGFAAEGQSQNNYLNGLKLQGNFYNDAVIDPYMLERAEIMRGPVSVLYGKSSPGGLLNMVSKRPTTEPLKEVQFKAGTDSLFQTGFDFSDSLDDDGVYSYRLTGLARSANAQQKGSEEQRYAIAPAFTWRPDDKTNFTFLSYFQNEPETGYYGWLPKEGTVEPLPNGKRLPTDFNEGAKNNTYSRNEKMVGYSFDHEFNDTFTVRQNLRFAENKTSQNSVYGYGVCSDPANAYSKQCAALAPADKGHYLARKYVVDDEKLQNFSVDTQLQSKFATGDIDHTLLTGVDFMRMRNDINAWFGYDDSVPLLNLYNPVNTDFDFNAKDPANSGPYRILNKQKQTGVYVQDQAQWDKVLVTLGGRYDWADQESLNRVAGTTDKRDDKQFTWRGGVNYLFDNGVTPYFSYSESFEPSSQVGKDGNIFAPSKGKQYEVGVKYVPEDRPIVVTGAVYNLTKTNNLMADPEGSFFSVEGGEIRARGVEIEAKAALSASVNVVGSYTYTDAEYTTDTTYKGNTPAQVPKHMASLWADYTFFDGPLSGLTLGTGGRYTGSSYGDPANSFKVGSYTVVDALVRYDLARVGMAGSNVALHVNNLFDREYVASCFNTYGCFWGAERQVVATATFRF
# B1: Peptide NSPr (reversed nanodisc scaffold peptide, peptidisc scaffold) (peptide)
# peptide: FAEKFKEAVKDYFAKFWDPAAEKLKEAVKDYFAKLWD
# notes: also called NSP (used loosely in some legends and methods); source: synthetic peptide; bought: A+ peptide Co. Ltd. and Genscript (purity >80%)
# B2: FhuA reconstituted in peptidisc (FhuA-NSPr) (complex)
# chain: T2 sequence (looked up)
# peptide: B1 peptide
# notes: also called FhuA-peptidisc; FhuA peptidisc; copies: 1 + 10
# B3: Peptide NSPrbio (NSPr labelled with a biotin group) (peptide)
# peptide: B1 peptide
# modifications: also: biotin group, position not given here
# notes: source: synthetic peptide; bought: KareBay
# Experiments:
# Settings in all cases: both partners purified
# [1] = molecular target: T3, MalFGK2 ABC transporter (maltose transporter), His-tagged (UniProt P02916 1-514; P68183 1-296; P68187 1-371); assay: SDS-PAGE densitometry of gel-filtered peptidiscs; peptidiscs made on-column, one more gel filtration to remove free NSPr; 15% SDS-PAGE, Coomassie fluorescence of the NSPr band against a standard curve of NSPr; triplicate gels
# T3 construct: also called MalGFK2
# [2] = molecular target: Photosynthetic bacterial reaction center (BRC) from Rhodobacter sphaeroides, His-tagged (Rhodobacter sphaeroides, UniProt P0C0Y8 1-282; P0C0Y9 1-308; P0C0Y7 1-260); assay: as above
# [3] = molecular target: T1, Colicin M, His-tagged; assay: native gel or EMSA; about 2 µg FhuA in peptidisc incubated with TonB23-329 (2 µg) or ColM (5 µg), with or without ferricrocin, 5 min at room temperature; CN-PAGE, Coomassie; free TonB and ColM do not migrate
# [4] = molecular target: T2, FhuA receptor, His-tagged; assay: streptavidin blot quantification of biotinylated peptide in gel-filtered peptidiscs; FhuA reconstituted with NSPrbio; western blot with streptavidin-Alexa 680, against a standard curve
# T3 sequence (P02916 whole entry, chain 1 of 3): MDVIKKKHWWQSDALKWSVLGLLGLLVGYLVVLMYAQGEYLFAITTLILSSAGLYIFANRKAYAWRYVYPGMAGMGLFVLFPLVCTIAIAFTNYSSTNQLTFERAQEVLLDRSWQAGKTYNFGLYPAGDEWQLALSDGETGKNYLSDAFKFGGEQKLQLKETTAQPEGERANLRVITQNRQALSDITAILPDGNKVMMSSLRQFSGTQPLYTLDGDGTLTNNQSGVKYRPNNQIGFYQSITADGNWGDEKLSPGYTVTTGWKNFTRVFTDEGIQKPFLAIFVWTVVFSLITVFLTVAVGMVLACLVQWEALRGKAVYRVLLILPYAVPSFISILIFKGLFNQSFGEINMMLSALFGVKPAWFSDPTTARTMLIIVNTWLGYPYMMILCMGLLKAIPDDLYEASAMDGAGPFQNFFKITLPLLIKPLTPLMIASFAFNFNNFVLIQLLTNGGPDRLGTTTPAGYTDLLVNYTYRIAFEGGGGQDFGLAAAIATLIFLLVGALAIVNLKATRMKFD
# T3 sequence (P68183 whole entry, chain 2 of 3): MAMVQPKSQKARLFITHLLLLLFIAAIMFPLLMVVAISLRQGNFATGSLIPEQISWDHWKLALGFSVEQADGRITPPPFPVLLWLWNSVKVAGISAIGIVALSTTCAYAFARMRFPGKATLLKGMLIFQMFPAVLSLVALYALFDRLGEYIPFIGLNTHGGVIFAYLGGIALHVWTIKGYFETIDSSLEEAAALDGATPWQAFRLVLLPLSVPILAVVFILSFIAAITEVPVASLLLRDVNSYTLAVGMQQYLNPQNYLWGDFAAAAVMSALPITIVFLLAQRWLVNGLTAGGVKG
# T3 sequence (P68187 whole entry, chain 3 of 3): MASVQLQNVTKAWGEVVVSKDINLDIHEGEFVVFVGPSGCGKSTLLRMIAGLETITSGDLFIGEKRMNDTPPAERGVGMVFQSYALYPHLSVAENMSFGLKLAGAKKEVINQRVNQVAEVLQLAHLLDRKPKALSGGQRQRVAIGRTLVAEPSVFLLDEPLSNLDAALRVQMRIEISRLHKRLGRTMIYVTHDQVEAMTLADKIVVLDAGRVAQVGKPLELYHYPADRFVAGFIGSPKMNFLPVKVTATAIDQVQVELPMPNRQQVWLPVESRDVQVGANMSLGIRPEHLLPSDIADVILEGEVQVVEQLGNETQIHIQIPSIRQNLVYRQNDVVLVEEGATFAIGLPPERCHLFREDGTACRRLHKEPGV
binder,measurement,setting,value
B1,stoichiometry N,[1],10 NSPr/disc
same,stoichiometry N,[2],9 NSPr/disc
B2,binding result,[3],binds
B3,stoichiometry N,[4],10 NSPr/disc
